Patent publication US20230002480A1

Legend:
Assay in all cases: cell-based or functional assay
[1] = target: HIV-1 Env of pseudovirus 3415.v1.c1 (HIV-1)
[2] = target: HIV-1 Env of pseudovirus 6952.v1.c20 (HIV-1)
[3] = target: HIV-1 Env of pseudovirus CAP210.2.00.E8 (clade C) (HIV-1)
[4] = target: HIV-1 Env of pseudovirus Ce2010_F5 (clade C (T/F)) (HIV-1)
[5] = target: HIV-1 Env of pseudovirus HIV-16055-2.3 (clade C) (HIV-1)
[6] = target: HIV-1 Env of pseudovirus RHPA4259.7 (clade B) (HIV-1)
[7] = target: HIV-1 Env of pseudovirus 0815.v3.c3 (clade ACD) (HIV-1)
[8] = target: HIV-1 Env of pseudovirus 231965.c01 (clade D) (HIV-1)
[9] = target: HIV-1 Env of pseudovirus 231966.c02 (clade D) (HIV-1)
[10] = target: HIV-1 Env of pseudovirus 3016.v5.c45 (clade D) (HIV-1)
[11] = target: HIV-1 Env of pseudovirus 3103.v3.c10 (clade ACD) (HIV-1)
[12] = target: HIV-1 Env of pseudovirus 3301.v1.c24 (clade AC) (HIV-1)
[13] = target: HIV-1 Env of pseudovirus 3817.v2.c59 (clade CD) (HIV-1)
[14] = target: HIV-1 Env of pseudovirus 6041.v3.c23 (clade AC) (HIV-1)
[15] = target: HIV-1 Env of pseudovirus 6480.v4.c25 (clade CD) (HIV-1)
[16] = target: HIV-1 Env of pseudovirus 6540.v4.c1 (clade AC) (HIV-1)
[17] = target: HIV-1 Env of pseudovirus 6545.v4.c1 (clade AC) (HIV-1)
[18] = target: HIV-1 Env of pseudovirus 6811.v7.c18 (clade CD) (HIV-1)
[19] = target: HIV-1 Env of pseudovirus 6952.v1.c20 (clade CD) (HIV-1)
[20] = target: HIV-1 Env of pseudovirus 89-F1_2_25 (clade CD) (HIV-1)
[21] = target: HIV-1 Env of pseudovirus A07412M1.vrc12 (clade D) (HIV-1)
[22] = target: HIV-1 Env of pseudovirus CAP45.2.00.G3 (HIV-1)
[23] = target: HIV-1 Env of pseudovirus Ce1086_B2 (HIV-1)
[24] = target: HIV-1 Env of pseudovirus P1981_C5_3 (clade G) (HIV-1)
[25] = target: HIV-1 Env of pseudovirus Q23.17 (HIV-1)
[26] = target: HIV-1 Env of pseudovirus RHPA4259.7 (HIV-1)
[27] = target: HIV-1 Env of pseudovirus X1632_S2_B10 (clade G) (HIV-1)
[28] = target: HIV-1 Env of pseudovirus X2131_C1_B5 (clade G) (HIV-1)
[29] = target: HIV-1 Env of pseudovirus ZM53M.PB12 (HIV-1)
[30] = target: MuLV envelope (negative control pseudovirus) (MuLV)

N49P11 (antibody)
IC50 [1]: 1.86 µg/mL | IC80 [1]: 10.3 µg/mL | MPI [1]: 100 | IC50 [2]: 6.57 µg/mL | IC80 [2]: 22.7 µg/mL | MPI [2]: 100 | IC50 [3]: 5.12 µg/mL | IC80 [3]: 19.4 µg/mL | MPI [3]: 100 | IC50 [4]: 0.38 µg/mL | IC80 [4]: 3.27 µg/mL | MPI [4]: 100 | IC50 [5]: 0.091 µg/mL | IC80 [5]: 0.503 µg/mL | MPI [5]: 100 | IC50 [6]: 0.202 µg/mL | IC80 [6]: 0.956 µg/mL | MPI [6]: 100

N49P7.1 (antibody)
IC50, neutralization titer in TZM.bl cells [7]: 0.023 µg/mL | IC80, neutralization titer in TZM.bl cells [7]: 0.064 µg/mL | MPI, neutralization in TZM.bl cells [7]: 100 | IC50, neutralization titer in TZM.bl cells [8]: 0.106 µg/mL | IC80, neutralization titer in TZM.bl cells [8]: 0.364 µg/mL | MPI, neutralization in TZM.bl cells [8]: 100 | IC50, neutralization titer in TZM.bl cells [9]: 0.203 µg/mL | IC80, neutralization titer in TZM.bl cells [9]: 0.705 µg/mL | MPI, neutralization in TZM.bl cells [9]: 100 | IC50, neutralization titer in TZM.bl cells [10]: 0.559 µg/mL | IC80, neutralization titer in TZM.bl cells [10]: 2.54 µg/mL | MPI, neutralization in TZM.bl cells [10]: 100 | IC50, neutralization titer in TZM.bl cells [11]: 0.229 µg/mL | IC80, neutralization titer in TZM.bl cells [11]: 0.772 µg/mL | MPI, neutralization in TZM.bl cells [11]: 100 | IC50, neutralization titer in TZM.bl cells [12]: 0.041 µg/mL | IC80, neutralization titer in TZM.bl cells [12]: 0.111 µg/mL | MPI, neutralization in TZM.bl cells [12]: 100 | neutralization IC50 [1]: 0.191 µg/mL | neutralization IC80 [1]: 0.647 µg/mL | neutralization MPI [1]: 100 | IC50, neutralization titer in TZM.bl cells [13]: 1.48 µg/mL | IC80, neutralization titer in TZM.bl cells [13]: 8.36 µg/mL | MPI, neutralization in TZM.bl cells [13]: 97 | IC50, neutralization titer in TZM.bl cells [14]: 0.078 µg/mL | IC80, neutralization titer in TZM.bl cells [14]: 0.366 µg/mL | MPI, neutralization in TZM.bl cells [14]: 100 | IC50, neutralization titer in TZM.bl cells [15]: 0.056 µg/mL | IC80, neutralization titer in TZM.bl cells [15]: 0.192 µg/mL | MPI, neutralization in TZM.bl cells [15]: 100 | IC50, neutralization titer in TZM.bl cells [16]: 14.7 µg/mL | IC80, neutralization titer in TZM.bl cells [16]: > 50 µg/mL | MPI, neutralization in TZM.bl cells [16]: 75 | IC50, neutralization titer in TZM.bl cells [17]: 1.15 µg/mL | IC80, neutralization titer in TZM.bl cells [17]: 16 µg/mL | MPI, neutralization in TZM.bl cells [17]: 92 | IC50, neutralization titer in TZM.bl cells [18]: 0.321 µg/mL | IC80, neutralization titer in TZM.bl cells [18]: 1.46 µg/mL | MPI, neutralization in TZM.bl cells [18]: 100 | IC50, neutralization titer in TZM.bl cells [19]: 26.3 µg/mL | IC80, neutralization titer in TZM.bl cells [19]: > 50 µg/mL | MPI, neutralization in TZM.bl cells [19]: 71 | IC50, neutralization titer in TZM.bl cells [20]: 41.6 µg/mL | IC80, neutralization titer in TZM.bl cells [20]: > 50 µg/mL | MPI, neutralization in TZM.bl cells [20]: 58 | IC50, neutralization titer in TZM.bl cells [21]: 0.232 µg/mL | IC80, neutralization titer in TZM.bl cells [21]: 1.07 µg/mL | MPI, neutralization in TZM.bl cells [21]: 100 | neutralization IC50 [22]: 0.086 µg/mL | neutralization IC80 [22]: 0.567 µg/mL | neutralization MPI [22]: 100 | neutralization IC50 [23]: 0.121 µg/mL | neutralization IC80 [23]: 0.742 µg/mL | neutralization MPI [23]: 99 | IC50, neutralization titer in TZM.bl cells [24]: 0.216 µg/mL | IC80, neutralization titer in TZM.bl cells [24]: 0.494 µg/mL | MPI, neutralization in TZM.bl cells [24]: 100 | neutralization IC50 [25]: 0.077 µg/mL | neutralization IC80 [25]: 0.208 µg/mL | neutralization MPI [25]: 100 | neutralization IC50 [26]: 0.108 µg/mL | neutralization IC80 [26]: 0.292 µg/mL | neutralization MPI [26]: 100 | IC50, neutralization titer in TZM.bl cells [27]: 17.9 µg/mL | IC80, neutralization titer in TZM.bl cells [27]: > 50 µg/mL | MPI, neutralization in TZM.bl cells [27]: 65 | IC50, neutralization titer in TZM.bl cells [28]: 0.129 µg/mL | IC80, neutralization titer in TZM.bl cells [28]: 0.431 µg/mL | MPI, neutralization in TZM.bl cells [28]: 100 | neutralization IC50 [29]: 0.287 µg/mL | neutralization IC80 [29]: 1 µg/mL | neutralization MPI [29]: 100 | IC50, neutralization titer in TZM.bl cells [30]: > 50 µg/mL | IC80, neutralization titer in TZM.bl cells [30]: > 50 µg/mL | MPI, neutralization in TZM.bl cells [30]: 4

N49P7.2 (antibody)
IC50 [1]: 0.381 µg/mL | IC80 [1]: 1.58 µg/mL | MPI [1]: 100 | IC50 [2]: > 50 µg/mL | IC80 [2]: > 50 µg/mL | MPI [2]: 0 | IC50 [3]: 3.94 µg/mL | IC80 [3]: 21.7 µg/mL | MPI [3]: 95 | IC50 [4]: 0.398 µg/mL | IC80 [4]: 1.29 µg/mL | MPI [4]: 100 | IC50 [5]: 0.204 µg/mL | IC80 [5]: 0.721 µg/mL | MPI [5]: 100 | IC50 [6]: 0.1 µg/mL | IC80 [6]: 0.289 µg/mL | MPI [6]: 100 | IC50 [30]: > 50 µg/mL | IC80 [30]: > 50 µg/mL | MPI [30]: 4
